The results in this text go back to patent publication US20240002547A1, “T[…]-TARGETING CONSTRUCTS AND USES THEREOF” (AEBI LTD., priority 2016, published 2024).

The test deals with human EGFR on A431 and MCF-7 cells (human), P00533. The test is described as follows: cell-based or functional assay.

Consider CHPGDKQEDPNCLQADK (modifications not checked) [E13.3], for which the IC50 of inhibition of EGFR autophosphorylation in A431 cells is 2000 nM and the Normalized Percent of EGFR autophosphorylation inhibition was 99.4%.
